Results as given in patent US10793871B2, “Nucleic acid molecule encoding glei protein variant with increased phytic acid sensitivity and use thereof” (University-Industry Foundation, Yonsei University, priority 2015, dated 2020).

T1: Dbp5 ATPase (Saccharomyces cerevisiae, UniProt P20449+Q12315)
T1 sequence (P20449 1-482): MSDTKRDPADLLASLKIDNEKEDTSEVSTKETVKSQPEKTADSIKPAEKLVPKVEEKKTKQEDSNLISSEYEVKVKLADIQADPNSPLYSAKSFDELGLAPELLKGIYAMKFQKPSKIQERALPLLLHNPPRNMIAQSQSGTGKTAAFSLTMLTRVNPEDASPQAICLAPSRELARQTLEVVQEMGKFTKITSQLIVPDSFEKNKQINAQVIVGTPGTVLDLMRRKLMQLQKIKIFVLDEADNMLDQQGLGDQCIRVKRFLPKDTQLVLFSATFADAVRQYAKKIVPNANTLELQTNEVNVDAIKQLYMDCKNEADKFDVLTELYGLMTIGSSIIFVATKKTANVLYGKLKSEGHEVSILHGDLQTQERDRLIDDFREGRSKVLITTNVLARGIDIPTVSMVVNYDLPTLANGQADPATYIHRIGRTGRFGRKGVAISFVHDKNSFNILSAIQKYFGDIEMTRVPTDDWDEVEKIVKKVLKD
T1 sequence (Q12315 1-538): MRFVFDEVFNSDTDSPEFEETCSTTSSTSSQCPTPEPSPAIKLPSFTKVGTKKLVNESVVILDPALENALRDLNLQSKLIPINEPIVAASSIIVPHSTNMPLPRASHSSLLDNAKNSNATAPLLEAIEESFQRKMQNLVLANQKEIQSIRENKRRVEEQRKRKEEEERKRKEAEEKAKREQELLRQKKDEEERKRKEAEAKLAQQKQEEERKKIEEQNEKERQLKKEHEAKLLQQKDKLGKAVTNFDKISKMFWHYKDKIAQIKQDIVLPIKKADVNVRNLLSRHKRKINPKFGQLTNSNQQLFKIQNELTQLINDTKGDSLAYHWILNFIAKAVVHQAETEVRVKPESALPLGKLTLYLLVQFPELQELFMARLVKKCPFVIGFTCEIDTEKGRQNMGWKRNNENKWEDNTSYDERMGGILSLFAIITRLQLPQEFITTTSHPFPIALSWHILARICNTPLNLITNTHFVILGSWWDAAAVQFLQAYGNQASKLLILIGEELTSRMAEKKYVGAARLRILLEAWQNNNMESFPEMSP

T2: LOS4 ATPase (Arabidopsis thaliana, UniProt Q0WPZ7)
T2 construct: LOS4 was cloned into a pET-29a vector for His fusion; made in house; host or cells: Escherichia coli Rosetta (DE3) for LOS4-His; BL21 (DE3) for MBP-Gle1C
T2 sequence (Q0WPZ7 244-611): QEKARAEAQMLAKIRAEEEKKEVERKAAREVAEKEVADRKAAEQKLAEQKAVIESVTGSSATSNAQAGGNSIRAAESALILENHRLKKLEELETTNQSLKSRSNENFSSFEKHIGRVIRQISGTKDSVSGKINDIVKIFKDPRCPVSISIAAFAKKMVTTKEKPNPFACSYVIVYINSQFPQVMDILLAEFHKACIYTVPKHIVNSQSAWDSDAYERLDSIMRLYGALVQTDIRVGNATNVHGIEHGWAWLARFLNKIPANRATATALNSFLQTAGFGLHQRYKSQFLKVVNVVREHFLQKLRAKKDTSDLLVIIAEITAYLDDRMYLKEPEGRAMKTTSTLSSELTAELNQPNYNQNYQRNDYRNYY


Experiments:
Dbp5 ATPase = target: T1, Dbp5 ATPase; conditions: yeast; InsP6 100 nM added to Gle1 and RNA; cited from earlier work
LOS4 ATPase [1] = assay: Steady-state ATPase assay of LOS4-His; type: biochemical, Arabidopsis thaliana
Procedure: (§1) A steady-state ATPase assay was performed as described by Alcázar-Román et al. (Inositol hexakisphosphate and Gle1 activate the DEAD-box protein Dbp5 for nuclear mRNA export. Nat. Cell Biol. 8: 711-716, 2006) with slight modifications. The ATPase assay was performed with a LOS4-His protein in a 96-well plate using a buffer containing 20 mM HEPES (pH 7.5), 150 mM NaCl, 3 mM MgCl2, 1 mM DTT, 2 mM ATP, 6 mM phosphoenolpyruvate, 1.2 mM NADH, 1 mg/ml BSA and 2% (v/v) pyruvate kinase/lactate dihydrogenase (Sigma-Aldrich) in a total volume of 100 μl. Polyadenylic acid was added at 50 μg/ml or different concentrations as described above. Absorbance at 340 nm was measured using a VersaMax absorbance microplate reader (Molecular Devices), and the data were analyzed using SoftMax Pro software (Molecular Devices).
(§2) Gle1 and Gle1C (aa residues 244-611) were cloned into a pMAL C2X vector (New England Biolabs) for MBP fusion, LOS4 was cloned into a pET-29a vector for His fusion. MBP-Gle1 and MBP-Gle1C proteins were expressed in a BL21 (DE3) strain, and LOS4-His proteins were expressed in a Rosseta (DE3) strain of Escherichia coli. Cells were grown at 37° C. to an A600 of 0.4, shifted to 16° C., and induced by 0.25 mM IPTG for 16 hours. The MBP- and His-fusion proteins were purified following the manufacturer's introductions using MBP Excellose (Bioprogen) and His60 Ni Superflow™ resin (Clontech), respectively.

LOS4 ATPase [2] = target: T2, LOS4 ATPase; assay: Steady-state ATPase assay of LOS4-His; type: biochemical; conditions: MBP-Gle1C alone (2 μM), without LOS4
Procedure: as §1, §2

| Molecule | additional increase in Dbp5 ATPase activity (Dbp5 ATPase) | additional increase in LOS4 activity by InsP6 (LOS4 ATPase [1]; InsP6 10 μM added to Gle1 and RNA (FIG. 5B)) [%] | increase of LOS4 ATPase activity (LOS4 ATPase [1]; LOS4-His 1 μM, ATP 2 mM, RNA 50 μg/ml, MBP-Gle1 2 μM plus 10 μM InsP6) [fold] | intrinsic ATPase activity (LOS4 ATPase [2]) | LOS4-His ATPase activity on addition of increasing amounts of protein (LOS4 ATPase [1]; 0-4 μM MBP-Gle1C, 1 μM LOS4-His, 2 mM ATP, RNA (FIG. 4C)) | stimulation of LOS4 ATPase activity in the absence of InsP6 (LOS4 ATPase [1]; 1 μM LOS4-His, 2 mM ATP, RNA, 2 μM MBP-Gle1C or variant, no InsP6) | increase in the overall catalytic rate of LOS4 (LOS4 ATPase [1]; LOS4-His 1 μM with MBP-Gle1C 2 μM vs LOS4-His alone) | apparent kcat of LOS4-His (LOS4 ATPase [1]; LOS4-His (1 μM) with MBP-Gle1C (2 μM), 0-2 mM ATP) [s⁻¹] | maximal increase in LOS4 ATPase activity with RNA (LOS4 ATPase [1]; LOS4-His:MBP-Gle1C 1:2, addition of RNA (polyadenylic acid) at different concentrations) [fold] | InsP6 concentration at which LOS4-stimulating activity increases above basal (LOS4 ATPase [1]; with RNA, InsP6 0-100 μM) [µM] | InsP6 concentration giving maximum LOS4-stimulating activity (LOS4 ATPase [1]; with RNA, InsP6 0-100 μM) [µM] | InsP6 concentrations at which only basal LOS4-stimulating activity is maintained (LOS4 ATPase [1]; with RNA, InsP6 0-100 μM) [nM] |
| --- | --- | --- | --- | --- | --- | --- | --- | --- | --- | --- | --- | --- |
| O=P(O)(O)O[C@H]1[C@H](OP(=O)(O)O)[C@@H](OP(=O)(O)O)[C@H](OP(=O)(O)O)[C@@H](OP(=O)(O)O)[C@H]1OP(=O)(O)O [InsP6, Myo-inositol-1,2,3,4,5,6-hexakisphosphate, reference compound] | 3- to 4 fold | 30 | > 4 | – | – | – | – | – | – | – | – | – |
| MBP-Gle1C: MBP fusion protein of the carboxyl-terminal domain of Gle1 (amino acid residues 244-611), wild type (protein) QEKARAEAQMLAKIRAEEEKKEVERKAAREVAEKEVADRKAAEQKLAEQKAVIESVTGSSATSNAQAGGNSIRAAESALILENHRLKKLEELETTNQSLKSRSNENFSSFEKHIGRVIRQISGTKDSVSGKINDIVKIFKDPRCPVSISIAAFAKKMVTTKEKPNPFACSYVIVYINSQFPQVMDILLAEFHKACIYTVPKHIVNSQSAWDSDAYERLDSIMRLYGALVQTDIRVGNATNVHGIEHGWAWLARFLNKIPANRATATALNSFLQTAGFGLHQRYKSQFLKVVNVVREHFLQKLRAKKDTSDLLVIIAEITAYLDDRMYLKEPEGRAMKTTSTLSSELTAELNQPNYNQNYQRNDYRNYY | – | – | – | did not show intrinsic ATPase activity | activated LOS4-His ATPase activity in a concentration-dependent manner | activated LOS4 ATPase activity to similar degrees | approximately two-fold | 0.565 | ~3 | 1 | 10 | 1 to 100 |
